Molecular target: HFE-WT-flagM2 (homeostatic iron regulator protein) with β2M-flagM2 (UniProt Q30201)

HFE level by Western blot in HepG2 PCSK9 KO cells expressing HFE/β2M after 18 h with conditioned medium containing WT PCSK9 (Figure 2A): 60 % reduction
Substance: PCSK9-WT-V5 (proprotein convertase subtilisin/kexin type 9, wild type) (from UniProt Q8NBP7 31-152; Q8NBP7 153-692) (natural protein)

Reference: article PMC11119474
